Assay results published in publication doi:10.1101/2022.05.13.491839 (bioRxiv, 2022).

Assays:
Test in all cases: liposome flotation assay
VAP-A^His sL1 = biological target: T1, VAP-A^His sL1 (human, UniProt Q9P0L0 8-132; Q9P0L0 165-230)
T1 chain: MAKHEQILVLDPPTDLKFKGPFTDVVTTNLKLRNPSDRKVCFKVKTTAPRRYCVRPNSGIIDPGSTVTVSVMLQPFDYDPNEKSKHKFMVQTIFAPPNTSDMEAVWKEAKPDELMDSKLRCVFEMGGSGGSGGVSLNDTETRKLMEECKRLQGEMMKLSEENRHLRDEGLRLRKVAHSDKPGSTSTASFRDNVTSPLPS

VAP-A^His sL1/2 = biological target: T2, VAP-A^His sL1/2 (human, UniProt Q9P0L0 8-132; Q9P0L0 165-206)
T2 chain: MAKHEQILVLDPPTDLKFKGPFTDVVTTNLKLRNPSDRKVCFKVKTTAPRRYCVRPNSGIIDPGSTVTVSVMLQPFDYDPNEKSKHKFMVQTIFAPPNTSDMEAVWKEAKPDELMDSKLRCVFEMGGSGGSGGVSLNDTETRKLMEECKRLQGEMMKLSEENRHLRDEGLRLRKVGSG

VAP-A^His WT = biological target: T3, VAP-A^His WT (human, UniProt Q9P0L0 8-230)
T3 sequence (looked up): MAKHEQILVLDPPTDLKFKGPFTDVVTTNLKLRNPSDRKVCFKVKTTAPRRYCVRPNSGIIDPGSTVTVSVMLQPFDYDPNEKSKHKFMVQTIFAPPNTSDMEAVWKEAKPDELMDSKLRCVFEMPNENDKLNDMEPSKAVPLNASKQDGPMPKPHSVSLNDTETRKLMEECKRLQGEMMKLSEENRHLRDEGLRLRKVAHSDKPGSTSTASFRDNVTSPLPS

VAP-A^His sL2 = biological target: T4, VAP-A^His sL2 (human, UniProt Q9P0L0 8-206)
T4 chain: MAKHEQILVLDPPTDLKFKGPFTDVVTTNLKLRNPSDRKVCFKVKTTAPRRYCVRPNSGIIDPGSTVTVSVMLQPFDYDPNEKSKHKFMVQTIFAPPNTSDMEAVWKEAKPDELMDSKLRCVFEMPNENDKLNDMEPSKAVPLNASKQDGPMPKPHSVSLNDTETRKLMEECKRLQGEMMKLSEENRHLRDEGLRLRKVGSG

Measured: binding result

WCSGKGDMSDEDDENEFFDAPEIITMPENLGH [FFAT peptide]
binds: all assays above
